# B1: Compound 6: Thioflavin T acid bound to glucose oxidase (GOx); 5.6 molecules per GOx molecule (conjugate, UniProt P13006 17-605, looked up)
# Glucose oxidase: LPHYIRSNGIEASLLTDPKDVSGRTVDYIIAGGGLTGLTTAARLTENPNISVLVIESGSYESDRGPIIEDLNAYGDIFGSSVDHAYETVELATNNQTALIRSGNGLGGSTLVNGGTWTRPHKAQVDSWETVFGNEGWNWDNVAAYSLQAERARAPNAKQIAAGHYFNASCHGVNGTVHAGPRDTGDDYSPIVKALMSAVEDRGVPTKKDFGCGDPHGVSMFPNTLHEDQVRSDAAREWLLPNYQRPNLQVLTGQYVGKVLLSQNGTTPRAVGVEFGTHKGNTHNVYAKHEVLLAAGSAVSPTILEYSGIGMKSILEPLGIDTVVDLPVGLNLQDQTTATVRSRITSAGAGQGQAAWFATFNETFGDYSEKAHELLNTKLEQWAEEAVARGGFHNTTALLIQYENYRDWIVNHNVAYSELFLDTAGVASFDVWDLLPFTRGYVHILDKDPYLHHFAYDPQYFLNELDLLGQAAATQLARNISNSGAMQTYFAGETIPGDNLAYDADLSAWTEYIPYHFRPNYHGVGTCSMMPKEMGGVVDNAARVYGVQGLRVIDGSIPPTQMSSHVMTVFYAMALKISDAILEDYASMQ
# modifications: Thioflavin T acid conjugated, 5.6 per GOx
# notes: 5.6 molecules per GOx molecule
# B2: GOx: glucose oxidase (manufactured by Sigma-Aldrich, G2133), unmodified comparison (protein, UniProt P13006 17-605, looked up)
# Glucose oxidase: B1 Glucose oxidase
# Target: T1, fibroin sheet (Bombyx mori, UniProt P05790)
# T1 construct: purchased Sigma-Aldrich
# Assay: Color intensity of modified fibroin sheet after glucose/HRP/4-aminoantipyrine chromogenic reaction
# Assay type: biochemical
# Conditions: fibroin sheet adsorbed from 0.3 mg/mL solution, 10 mM glucose, 1000 U/mL HRP, 5 minutes, ImageJ, average of five sheets
# Protocol: After methanol was added to the collected sheet, methanol was removed and dried overnight. The measurement of the weight of the fibroin sheet cut into 20 mm×40 mm size confirmed that it was 1.25 μg/mm^2 fibroin sheet. Fibroin sheets of 5 mm×5 mm size were cut and added to an aqueous solution of 0.3 mg/mL Compound 1 (0.2 mL) and allowed to stand for 10 minutes. Fibroin sheets were immersed in PBS buffer (1 mL, pH7.4) containing 0.05 wt % Tween20 for 15 minutes×2 and in PBS (1 mL, pH7.4) for 1 minute. The modified fibroin sheet was obtained by drying at room temperature.
# A fibroin sheet adsorbed with Compound 6 was prepared in the same manner as Manufacturing Example 2 except that 0.3 mg/mL Compound 6 aqueous solution was used instead of the aqueous solution of Compound 1.
# 1.5 μL of phosphate buffered saline (pH7.4) containing 10 mM glucose, 1000 U/mL HRP, 3.7 mM 4-aminoantipyrine, 6.4 mM sodium 3-[ethyl(m-tolyl) amino]-2 hydroxy-1 propanesulfonate was added dropwise to a fibroin sheet modified with Compound 6 obtained in Manufacturing Example 12 and allowed to stand in a wet box for 5 minutes. […] After drying the sheet, the sheet was read by a scanner to obtain image data. […] Five sheets were prepared and subjected to the same evaluation, and the average value of color intensity (Color Intensity, hereinafter CI value) was calculated. The calculated CI value was 54.5.
row,Molecule,CI value (average color intensity)
1,B1,54.5
2,B2,30.8

# — patent US20250361264A1, “PROTEIN MODIFYING REAGENT” (CANON KABUSHIKI KAISHA, priority 2023, published 2025)
